Source: patent publication US20230381281A1, “PHARMACEUTICAL COMPOSITION COMPRISING GLUCAGON/GLP-1/GIP TRIPLE AGONIST OR LONG-ACTING CONJUGATE THEREOF FOR PREVENTING OR TREATING LUPUS-RELATED DISEASES” (HANMI PHARM. CO., LTD., priority 2020, published 2023)
Bridge positions count the residues as written; N and C are the ends. Square brackets hold non-standard residues; d marks the D form. Ends that are not written are not given here. * marks the point of attachment. Acetyl(2-(4-imidazolyl)) = O=C(Cc1c[nH]cn1)*; Aib = CC(C)(N)C(=O)O

Legend:
human GCG receptor [1] = target: T1, human GCG receptor (Homo sapiens, UniProt P47871); experiment: In vitro cAMP activity in human GCG receptor-expressing CHO cells (LANCE cAMP kit); format: cell-based; details: statement in words in the description
T1 construct: expressed in transfected cells; host or cells: Chinese hamster ovary (CHO)
Procedure: In order to measure the activity of the triple agonists and long-acting conjugates thereof prepared according to Examples 1 and 2, the in-vitro cell activity was measured using cell lines transformed with GLP-1 receptor, glucagon (GCG) receptor, and GIP receptor, respectively.
The cell lines were transformed to express human GLP-1 receptor, human GCG receptor and human GIP receptor genes in Chinese hamster ovary (CHO), respectively, and are suitable for measuring the activities of GLP-1, GCG, and GIP. Therefore, the activity for each part was measured using each transformed cell line.
To measure the GCG activity of the triple agonists and long-acting conjugates prepared according to Examples 1 and 2, human GCG was diluted from 50 nM to […] by 4-fold serial dilution, and the triple agonists and long-acting conjugates thereof prepared according to Examples 1 and 2 were diluted from 400 nM to 0.00038 nM by 4-fold serial dilution. The culture medium was removed from the cultured human GCG receptor-expressing CHO cells, 5 μl of each of the serially diluted materials was added to the cells, and then 5 μl of buffer containing cAMP antibody was added to the cells, followed by 15 minutes of incubation at room temperature. Then, cells were lysed by adding 10 μl of detection mix containing cell lysis buffer, and reacted at room temperature for 90 minutes. The cell lysate after the reaction had been completed, was applied to the LANCE cAMP kit (PerkinElmer, USA) to calculate the EC50 value through the accumulated cAMP, and then compared with each other.

human GLP-1 receptor = human GLP-1 receptor (human, UniProt P43220 24-463); experiment: cell-based or functional assay
human GCG receptor [2] = target: human GCG receptor (human, UniProt P47871 26-477); experiment: cell-based or functional assay
human GIP receptor = target: T2, human GIP receptor (human, UniProt P48546 22-466); experiment: cell-based or functional assay
T2 sequence (looked up): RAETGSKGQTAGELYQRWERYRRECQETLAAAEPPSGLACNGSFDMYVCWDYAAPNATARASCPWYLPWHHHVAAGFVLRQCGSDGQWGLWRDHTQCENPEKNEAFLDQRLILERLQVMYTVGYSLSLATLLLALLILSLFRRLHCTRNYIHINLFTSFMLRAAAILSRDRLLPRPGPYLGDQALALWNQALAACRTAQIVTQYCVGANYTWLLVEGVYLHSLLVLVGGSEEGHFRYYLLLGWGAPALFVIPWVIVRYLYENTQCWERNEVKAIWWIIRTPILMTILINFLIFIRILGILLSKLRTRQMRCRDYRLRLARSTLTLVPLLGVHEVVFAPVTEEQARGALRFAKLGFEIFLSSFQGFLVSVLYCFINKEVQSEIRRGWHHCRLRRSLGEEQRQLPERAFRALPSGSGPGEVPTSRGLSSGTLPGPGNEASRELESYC

T1 sequence (P47871 26-477): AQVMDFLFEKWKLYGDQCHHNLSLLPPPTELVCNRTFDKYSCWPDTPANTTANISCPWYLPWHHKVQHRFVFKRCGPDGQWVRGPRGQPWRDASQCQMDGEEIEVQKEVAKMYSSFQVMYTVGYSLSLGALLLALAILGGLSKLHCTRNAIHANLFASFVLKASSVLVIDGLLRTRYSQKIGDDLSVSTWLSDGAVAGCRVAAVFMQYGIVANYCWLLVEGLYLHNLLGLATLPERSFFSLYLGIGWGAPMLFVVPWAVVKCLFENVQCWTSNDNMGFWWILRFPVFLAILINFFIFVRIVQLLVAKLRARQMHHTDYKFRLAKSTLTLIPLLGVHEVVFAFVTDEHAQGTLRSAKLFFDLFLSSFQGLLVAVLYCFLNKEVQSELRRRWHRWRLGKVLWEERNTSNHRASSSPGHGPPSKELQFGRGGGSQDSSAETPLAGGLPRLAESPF
Sequence of human GCG receptor (human, UniProt P47871 26-477) (P47871 26-477): as above

| Molecule | activity on the glucagon receptor (human GCG receptor [1]) | In vitro activity compared to native peptide (%) vs GLP-1 (human GLP-1 receptor) | In vitro activity compared to native peptide (%) vs Glucagon (human GCG receptor [2]) | In vitro activity compared to native peptide (%) vs GIP (human GIP receptor) |
| --- | --- | --- | --- | --- |
| 66 (Y[Aib]QGTFTSDYSKYLDECRAKDFVQWLLDHHPSSGQPPPS; bridge 16-20) [compound 66] | very high activity | – | – | – |
| 97 (Y[Aib]QGTFTSDYSKYLDEKRAKEFVQWLLDCHPSSGQPPPS; bridge 16-20) [compound 97] | very high activity | – | – | – |
| 70 (Y[Aib]QGTFTSDYSKCLDEKRAKDFVQWLLDHHPSSGQPPPS; bridge 16-20) [compound 70] | very high activity | – | – | – |
| {Acetyl(2-(4-imidazolyl))}-GQGTFTSDLSKQMDSEAQQLFIEWLKNGGPSSGAPPPSHG [Triple agonist of SEQ ID NO: 16] | – | 2.1% | < 0.1% | < 0.1% |
| H[Aib]QGTFTSDYSKYLDEKACKEFVQWLLAQ (bridge 16-20) [Triple agonist of SEQ ID NO: 31] | – | 135% | 2.2% | 2.4% |
| H[Aib]QGTFTSDVSSYLLGQAAKQFIAWLVKGGGPSSGAPPPSC [Triple agonist of SEQ ID NO: 3] | – | 1.8% | < 0.1% | < 0.1% |
| {Acetyl(2-(4-imidazolyl))}-GQGTFTSDYSIQLDEIAVRDFVEWLKNGGPSSGAPPPSHG [Triple agonist of SEQ ID NO: 14] | – | 28% | < 0.1% | < 0.1% |
| H[Aib]QGTFTSDYSKYLDEKAAKEFVQWLLNTC (bridge 16-20) [Triple agonist of SEQ ID NO: 29] | – | 38.5% | 6% | < 0.1% |
| H[Aib]QGTFTSDYSKYLDEKAQKEFVQWLLDTC (bridge 16-20) [Triple agonist of SEQ ID NO: 30] | – | 142% | 0.7% | 0.8% |
| Y[Aib]QGTFTSDYSKYLDECRAKEFVQWLKNGGPSSGAPPPS (bridge 16-20) [Triple agonist of SEQ ID NO: 24] | – | 41.2% | 9.3% | < 0.1% |
| Y[Aib]QGTFTSDYSKCLDEKRAKEFVQWLLDHHPSSGQPPPS (bridge 16-20) [Triple agonist of SEQ ID NO: 22] | – | 20.1% | 140% | 59.7% |
| H[Aib]QGTFTSDYSKYLDERACQDFVQWLLDQGGPSSGAPPPS [Triple agonist of SEQ ID NO: 27] | – | 83.1% | 0.8% | 0.9% |
| {Acetyl(2-(4-imidazolyl))}-GQGTFTSDLSKQMDSERAREFIEWLKNTGPSSGAPPPSHG [Triple agonist of SEQ ID NO: 18] | – | < 0.1% | < 0.1% | < 0.1% |
| H[Aib]QGTFTSDYSKYLDEKRAQEFVCWLLAQKGKKNDWKHNIT [Triple agonist of SEQ ID NO: 28] | – | 17.2% | 1.6% | < 0.1% |
| H[Aib]QGTFTSDVSSYLDGQAQKEFIAWLVKGC [Triple agonist of SEQ ID NO: 2] | – | 5.9% | < 0.1% | < 0.1% |
| Y[Aib]QGTFTSDYSKYLDECRAKEFVQWLLAQKGKKNDWKHNIT (bridge 16-20) [Triple agonist of SEQ ID NO: 23] | – | 4.01% | 9.3% | < 0.1% |
| {Acetyl(2-(4-imidazolyl))}-GQGTFTSDLSIQYDSEHQRDFIEWLKDTGPSSGAPPPSHG [Triple agonist of SEQ ID NO: 19] | – | < 0.1% | < 0.1% | < 0.1% |
| H[Aib]QGTFTSDYSIAMDEIHQKDFVNWLLAQKC (bridge 16-20) [Triple agonist of SEQ ID NO: 33] | – | 24.5% | < 0.1% | 10.4% |
| {Acetyl(2-(4-imidazolyl))}-GQGTFTSDLSIQYEEEAQQDFVEWLKDTGPSSGAPPPSHG [Triple agonist of SEQ ID NO: 20] | – | < 0.1% | < 0.1% | < 0.1% |
| {Acetyl(2-(4-imidazolyl))}-GEGTFISDYSIQLDEIAVQDFVEWLLAQKPSSGAPPPSHG [Triple agonist of SEQ ID NO: 13] | – | < 0.1% | < 0.1% | < 0.1% |
| H[Aib]QGTFTSDCSKYLDSRAAQDFVQWLLDGGPSSGAPPPS [Triple agonist of SEQ ID NO: 26] | – | 64.5% | 0.2% | < 0.1% |
| Y[Aib]QGTFTSDYSKYLDECRAKEFVQWLLDHHPSSGQPPPS (bridge 16-20) [Triple agonist of SEQ ID NO: 21] | – | 17.8% | 267% | 22.7% |
| {Acetyl(2-(4-imidazolyl))}-GQGTFTSDLSKQMDEERAREFIEWLLAQKPSSGAPPPSHG [Triple agonist of SEQ ID NO: 17] | – | 0.2% | < 0.1% | < 0.1% |
| H[Aib]QGTFTSDYSKYLDEKACKDFVQWLLDGGPSSGAPPPS (bridge 16-20) [Triple agonist of SEQ ID NO: 32] | – | 151% | 1.7% | 8.8% |
| H[Aib]QGTFTSDCSKYLDERAAQDFVQWLLDGGPSSGAPPPS [Triple agonist of SEQ ID NO: 25] | – | 82.6% | 0.1% | < 0.1% |
